The record followed here is patent US20090292112A1 (published 2009).

This test concerns the target T1, RG1 polypeptide (native RG1 protein, purified from transfected BHK cells) (human, UniProt Q9BUD6 27-331).
T1 construct: The Biacore assay used BHK-RG1; The Western blots used RG1 from COS, LNCaP and BHK cells and from lysates; also called nRG1; BHK-RG1
T1 chain: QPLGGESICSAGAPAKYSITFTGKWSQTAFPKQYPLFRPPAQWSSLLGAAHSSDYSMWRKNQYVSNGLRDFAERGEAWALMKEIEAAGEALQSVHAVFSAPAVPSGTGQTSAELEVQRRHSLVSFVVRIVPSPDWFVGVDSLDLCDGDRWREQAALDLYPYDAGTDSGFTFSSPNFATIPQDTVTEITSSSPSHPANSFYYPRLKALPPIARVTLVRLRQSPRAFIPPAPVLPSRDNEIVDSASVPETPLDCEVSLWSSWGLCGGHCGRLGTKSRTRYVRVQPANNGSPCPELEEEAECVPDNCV
The test is described as follows: BIAcore SPR; mab captured on anti-human IgG Fc, soluble BHK-RG1 12.5-400 nM, 1:1 Langmuir fit. How it is done: Kinetic constants (KD, kₐ and kd) of mab binding to native RG1 protein were determined by BIAcore using a capture format in which soluble, native RG1 protein was bound to immobilized mab on a sensor chip. ImmunoPure rabbit anti-human IgGFc (Pierce, 31142) was covalently immobilized to the Sensor Chip CM5 (Biacore, BR-1000-12) using standard amine coupling methods. 100 ug/ml antibody diluted in 10 mm acetate, pH 4.0 was used at 5 ul/min. HBS-EP (Biacore, BR-1001-88) was used as mobile phase. Unreacted sites were blocked with ethanolamine. Mabs were diluted to 200 nM with HBS and 50 ul was injected per cycle at 10 ul/min. Serial dilutions of BHK-RG1 (12.5-400 nM) were bound to the immobilized mab. Dissociation kinetics were measured immediately after the antigen injection was completed at 20 ul/min for 8 minutes. The surface was regenerated following each cycle using 25 ul of 10 mm glycine, pH 1.8 and then washed with HBS.
Data were fit to a 1:1 Langmuir model using the software provided by the instrument manufacturer (BIAevaluation 3.0), and kinetic constants were calculated.

B1: human RG1 monoclonal antibody B (antibody, V domains shown)
VH: EVQLVQSGGGLVMPGGSLRLSCAGSGFTFSSYVMHWLRQAPGKGLEWVSVIGTGGVTHYADSVKGRFMISRDNAKNSLYLQMNSLRAEDTAMYYCARWGYYGSGSYENDAFDIWGQGTMVTVSS
VL: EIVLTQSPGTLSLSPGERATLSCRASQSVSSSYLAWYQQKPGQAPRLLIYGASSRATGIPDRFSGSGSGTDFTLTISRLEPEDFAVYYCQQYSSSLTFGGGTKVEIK
notes: Hybridomas were screened for human IgG,kappa, and the isotype of this clone is not explicitly stated; also called M ab B
B1 registered a Kd of 8.4 nM, a koff of 0.00023 s⁻¹ and a kon of 29000 M⁻¹ s⁻¹.
